From patent CN113501876A (WEST CHINA HOSPITAL SICHUAN UNIV, dated 2021)

What was measured:
[1] = biological target: T1, 蛋白激酶p38δ (p38δ-2×Strep) (Homo sapiens (Human), UniProt O15264 1-365); assay: indirect ELISA, p38δ coated, nanobody at 0-6.4 μM, anti-FLAG detection, 4-parameter fit
T1 construct: Expressed from pET28a-p38δ-2×Strep in E. coli BL21(DE3) and purified on MagStrep beads; The tag is placed C-terminal on the strength of the vector name only; Any further vector residues are not described; not shown: 2×Strep tag
T1 sequence: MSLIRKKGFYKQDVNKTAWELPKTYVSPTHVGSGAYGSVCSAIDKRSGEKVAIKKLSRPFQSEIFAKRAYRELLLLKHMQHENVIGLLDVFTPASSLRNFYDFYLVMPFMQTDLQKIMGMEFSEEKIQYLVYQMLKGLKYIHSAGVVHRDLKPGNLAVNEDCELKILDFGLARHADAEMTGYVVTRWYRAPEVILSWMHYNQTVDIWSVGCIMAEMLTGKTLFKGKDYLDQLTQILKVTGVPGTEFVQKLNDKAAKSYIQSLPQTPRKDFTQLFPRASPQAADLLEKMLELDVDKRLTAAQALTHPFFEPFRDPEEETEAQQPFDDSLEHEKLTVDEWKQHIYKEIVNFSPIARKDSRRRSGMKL

[2] = biological target: T2, p38γ (p38γ-2×Strep) (Homo sapiens (Human), UniProt P53778 1-367); assay: ELISA, p38 proteins coated on the plate, nanobody periplasmic extract, anti-FLAG detection, OD450
T2 construct: Expressed from pET28a-p38γ-2×Strep in E. coli; not shown: 2×Strep tag
T2 sequence: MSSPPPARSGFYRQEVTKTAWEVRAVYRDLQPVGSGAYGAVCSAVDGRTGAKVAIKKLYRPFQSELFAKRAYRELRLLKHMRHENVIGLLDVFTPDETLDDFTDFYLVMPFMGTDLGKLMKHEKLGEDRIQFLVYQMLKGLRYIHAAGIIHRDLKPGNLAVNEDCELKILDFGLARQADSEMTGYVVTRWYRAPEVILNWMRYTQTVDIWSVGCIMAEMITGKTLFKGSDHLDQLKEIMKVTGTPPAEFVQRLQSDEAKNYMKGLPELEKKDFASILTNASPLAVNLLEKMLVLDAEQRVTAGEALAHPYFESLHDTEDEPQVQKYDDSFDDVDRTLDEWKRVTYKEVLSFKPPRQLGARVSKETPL

Kd [1]: 1.32 µM | binding result [2]: no binding
B1: 纳米抗体Nb13-1 (VHH)
VHH: QVQLVESGGALVQPGGSLRLSCAASGWWGQRGWLRWYRQAPGKEREWVCGISLRRNRYSYEDSVKGRFTCSRDDARNTVYLQLNSLKPEDTAVYYCAPLSLLHDEDNHSSNYWGQGTQVTVSS
notes: Expressed from pET22b-NB-FLAG in E. coli BL21(DE3); It was used as periplasmic extract in several assays; also called 特异性结合蛋白激酶p38δ的纳米抗体; not shown: C-terminal FLAG tag fused in pET22b
